Molecular target: Myeloid-associated differentiation marker (human) (human (endogenous in blood eosinophils of asthmatic volunteers)) (UniProt Q96S97)
Chain of UniProt Q96S97 (Q96S97 whole entry): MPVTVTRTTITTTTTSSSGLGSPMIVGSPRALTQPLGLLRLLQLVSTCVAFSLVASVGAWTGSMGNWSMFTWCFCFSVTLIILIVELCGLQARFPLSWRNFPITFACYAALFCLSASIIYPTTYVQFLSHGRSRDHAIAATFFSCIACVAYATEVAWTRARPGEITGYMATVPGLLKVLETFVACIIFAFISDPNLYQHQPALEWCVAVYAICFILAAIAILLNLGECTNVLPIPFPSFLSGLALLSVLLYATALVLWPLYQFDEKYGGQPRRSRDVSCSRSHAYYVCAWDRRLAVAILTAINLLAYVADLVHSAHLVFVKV

percent change in apoptotic human eosinophils (Siglec-8+, Annexin V/PI, flow cytometry, 16 h with SP-A) with pre-treatment using anti-MYADM (Invitrogen PA1-41578) compared to SP-A only: 22.5%
Substance: Surfactant protein A (SP-A), preparation genotyped as homozygous for Q (Q/Q) at position 223 of SP-A2 (from UniProt Q8IWL2 21-248; Q8IWL1 21-248) (complex)
